From paper PMC9399289, “Extended DNA-binding interfaces beyond the canonical SAP domain contribute to the function of replication stress regulator SDE2 at DNA replication forks” come the findings set out here.

Substitutions are numbered along the chain they refer to.

The target in one series is T1, GST-SDE2-FLAG WT (human, UniProt Q6IQ49 1-451).
T1 sequence: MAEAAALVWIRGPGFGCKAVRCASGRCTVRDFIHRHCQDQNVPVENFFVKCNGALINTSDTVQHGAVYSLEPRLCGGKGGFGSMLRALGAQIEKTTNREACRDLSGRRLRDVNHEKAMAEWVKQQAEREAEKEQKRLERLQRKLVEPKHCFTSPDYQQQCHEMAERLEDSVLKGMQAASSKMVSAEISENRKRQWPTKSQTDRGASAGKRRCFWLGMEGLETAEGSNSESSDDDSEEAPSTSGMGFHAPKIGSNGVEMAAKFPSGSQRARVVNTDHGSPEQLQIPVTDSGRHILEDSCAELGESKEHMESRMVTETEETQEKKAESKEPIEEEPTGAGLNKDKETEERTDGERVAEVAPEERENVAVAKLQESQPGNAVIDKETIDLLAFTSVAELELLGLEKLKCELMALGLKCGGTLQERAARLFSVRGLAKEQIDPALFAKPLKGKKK
Description: fluorescence anisotropy; EMSA: 10 mM Tris-HCl pH 7.5, 50 mM NaCl, 0.5 mM DTT, 0.05 mM EDTA, 3% glycerol, 0.05 mg/ml BSA (or 50 mM Na/K PO4 pH 6.0, 50 mM NaCl, 5 mM DTT), on ice; anisotropy: 50 mM Na/K PO4 pH 6.0, 50 mM NaCl, 5 mM DTT, 1 uM DNA; pull-down: 10 mM Tris-HCl pH 7.5, 100 mM NaCl, 0.2 mM EDTA, 1 mM DTT, 10% glycerol, 0.01% NP-40, 10 ug/ml BSA, RT; NMR: 50 mM Na/K phosphate, 50 mM NaCl, 5 mM DTT, 10% D2O. To be noted: protein: recombinant; tags: N-term GST, C-term FLAG; label: 5' 6-FAM. In general terms: Polarisation of emitted light reports the rotation of a fluorescent probe.

For another series, the target named is T2, GST-SDE2SAP (human, UniProt Q6IQ49 350-451).
T2 sequence: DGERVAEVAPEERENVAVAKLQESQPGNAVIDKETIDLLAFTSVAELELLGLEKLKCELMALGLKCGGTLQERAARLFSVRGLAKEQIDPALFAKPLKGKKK
The series is described as above. To be noted: protein: recombinant; tags: N-term GST; label: 5' 6-FAM.

For another series, the target named is T3, GST-SDE2-FLAG ΔSAP (human, UniProt Q6IQ49 1-451, del395-427).
T3 sequence: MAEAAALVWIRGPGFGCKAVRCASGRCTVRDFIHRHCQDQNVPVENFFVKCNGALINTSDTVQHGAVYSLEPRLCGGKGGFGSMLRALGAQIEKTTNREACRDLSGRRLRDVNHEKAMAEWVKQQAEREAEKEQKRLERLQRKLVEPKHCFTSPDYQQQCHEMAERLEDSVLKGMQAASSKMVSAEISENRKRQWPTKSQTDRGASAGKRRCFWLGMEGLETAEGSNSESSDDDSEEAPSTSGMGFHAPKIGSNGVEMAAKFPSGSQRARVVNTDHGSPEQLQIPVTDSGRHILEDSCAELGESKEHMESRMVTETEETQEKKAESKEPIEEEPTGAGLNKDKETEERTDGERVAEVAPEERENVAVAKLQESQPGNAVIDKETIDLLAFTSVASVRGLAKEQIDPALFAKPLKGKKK
Put plainly: EMSA; 200 nM protein, 50 nM DNA; EMSA: 10 mM Tris-HCl pH 7.5, 50 mM NaCl, 0.5 mM DTT, 0.05 mM EDTA, 3% glycerol, 0.05 mg/ml BSA (or 50 mM Na/K PO4 pH 6.0, 50 mM NaCl, 5 mM DTT), on ice; anisotropy: 50 mM Na/K PO4 pH 6.0, 50 mM NaCl, 5 mM DTT, 1 uM DNA; pull-down: 10 mM Tris-HCl pH 7.5, 100 mM NaCl, 0.2 mM EDTA, 1 mM DTT, 10% glycerol, 0.01% NP-40, 10 ug/ml BSA, RT; NMR: 50 mM Na/K phosphate, 50 mM NaCl, 5 mM DTT, …. The conditions noted are these: protein: recombinant; tags: N-term GST, C-term FLAG; label: 5' 6-FAM. In general terms: Mobility shift assays separate free from complexed probe on a gel.

Another series has as its target T4, GST-SDE2 ΔSAP+CTT (human, UniProt Q6IQ49 1-394, del395-451).
T4 sequence: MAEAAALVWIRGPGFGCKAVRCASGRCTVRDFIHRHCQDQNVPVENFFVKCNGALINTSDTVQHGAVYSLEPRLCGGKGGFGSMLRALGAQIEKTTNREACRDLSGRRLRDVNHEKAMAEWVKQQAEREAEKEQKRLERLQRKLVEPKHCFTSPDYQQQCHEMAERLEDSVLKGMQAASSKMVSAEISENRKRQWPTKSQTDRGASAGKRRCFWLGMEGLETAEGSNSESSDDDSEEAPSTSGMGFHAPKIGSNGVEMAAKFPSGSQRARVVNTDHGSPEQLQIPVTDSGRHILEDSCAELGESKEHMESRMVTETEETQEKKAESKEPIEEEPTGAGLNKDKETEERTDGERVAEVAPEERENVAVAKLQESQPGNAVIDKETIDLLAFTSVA
Put plainly: EMSA; 50-200 nM protein; EMSA: 10 mM Tris-HCl pH 7.5, 50 mM NaCl, 0.5 mM DTT, 0.05 mM EDTA, 3% glycerol, 0.05 mg/ml BSA (or 50 mM Na/K PO4 pH 6.0, 50 mM NaCl, 5 mM DTT), on ice; anisotropy: 50 mM Na/K PO4 pH 6.0, 50 mM NaCl, 5 mM DTT, 1 uM DNA; pull-down: 10 mM Tris-HCl pH 7.5, 100 mM NaCl, 0.2 mM EDTA, 1 mM DTT, 10% glycerol, 0.01% NP-40, 10 ug/ml BSA, RT; NMR: 50 mM Na/K phosphate, 50 mM NaCl, 5 mM DTT, 10% D2O. To be noted: protein: recombinant; tags: N-term GST; label: 5' 6-FAM.

In a further series the target is T5, GST-SDE2 CGTKK (human, UniProt Q6IQ49 1-451, C415A;G417S;T418V;K444A;K447A).
T5 sequence: T1 sequence with C415A, G417S, T418V, K444A, K447A
Description: EMSA; 50-200 nM protein, 20 nM DNA; EMSA: 10 mM Tris-HCl pH 7.5, 50 mM NaCl, 0.5 mM DTT, 0.05 mM EDTA, 3% glycerol, 0.05 mg/ml BSA (or 50 mM Na/K PO4 pH 6.0, 50 mM NaCl, 5 mM DTT), on ice; anisotropy: 50 mM Na/K PO4 pH 6.0, 50 mM NaCl, 5 mM DTT, 1 uM DNA; pull-down: 10 mM Tris-HCl pH 7.5, 100 mM NaCl, 0.2 mM EDTA, 1 mM DTT, 10% glycerol, 0.01% NP-40, 10 ug/ml BSA, RT; NMR: 50 mM Na/K phosphate, 50 mM NaCl, 5 mM DTT, …. The conditions noted are these: protein: recombinant; tags: N-term GST; label: 5' 6-FAM.

B1: 60-mer ssDNA (EMSA1) (ssDNA)
DNA: GACGCTGCCGAATTCTACCAGTGCCTTGCTAGGACATCTTTGCCCACCTGCAGGTTCACCC
Consider B1, for which the Kd – broadly, the free concentration of one partner at which half of the binding sites on the other are occupied at equilibrium, for simple one-to-one binding – is about 1100 nM in the series with GST-SDE2-FLAG WT and 1770 ± 410 nM with GST-SDE2SAP. The binding result with GST-SDE2-FLAG ΔSAP, with GST-SDE2 ΔSAP+CTT and in the series with GST-SDE2 CGTKK was “no binding” in each case.
